Results taken from publication PMC10759260 (Journal of Pharmaceutical Analysis, 2023).
Read-outs that look alike come from different tables or passages of the source.

Experiments:
HSP90α mutant Y61A = HSP90α mutant Y61A (Homo sapiens, UniProt P07900, Y61A); assay: biochemical
[1] = molecular target: HSP90α (90 kD heat shock protein alpha) (Homo sapiens, UniProt P07900); assay: biochemical
[2] = molecular target: CDC37 recombinant protein (UniProt Q16543); assay: ITC
[3] = molecular target: CDC37 recombinant protein (UniProt Q16543); assay: ITC; remark: listed apart in the source

Chain of CDC37 recombinant protein (Q16543 whole entry): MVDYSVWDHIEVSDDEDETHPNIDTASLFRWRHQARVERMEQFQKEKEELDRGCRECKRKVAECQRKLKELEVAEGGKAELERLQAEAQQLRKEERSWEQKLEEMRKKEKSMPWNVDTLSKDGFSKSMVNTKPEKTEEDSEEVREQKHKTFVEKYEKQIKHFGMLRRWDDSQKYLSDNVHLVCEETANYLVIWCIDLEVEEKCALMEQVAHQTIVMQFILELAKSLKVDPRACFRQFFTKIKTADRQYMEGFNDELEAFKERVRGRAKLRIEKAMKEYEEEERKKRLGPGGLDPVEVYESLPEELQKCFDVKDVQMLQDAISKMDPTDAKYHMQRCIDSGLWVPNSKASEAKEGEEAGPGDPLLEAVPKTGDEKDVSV

Compound | Kd (HSP90α mutant Y61A) [µM] | Kd [1] [µM] | Kd [2] [µM] | Kd [3] [µM]
CC(C)=CC/C=C(\C)[C@H]1CC[C@]2(C)[C@@H]1[C@H](O)C[C@@H]1[C@@]3(C)CC[C@H](O[C@@H]4O[C@H](CO)[C@@H](O)[C@H](O)[C@H]4O[C@@H]4O[C@H](CO)[C@@H](O)[C@H](O)[C@H]4O)C(C)(C)[C@@H]3CC[C@]12C [Rg5, ginsenoside Rg5] | 232 ± 34 | 24.8 ± 1.76 |  | 
HSP90α WT recombinant protein from E. coli (from UniProt P07900 1-732) (natural protein) |  |  | 2.68 | 34.4
HSP90α Y61A recombinant protein from E. coli (from UniProt P07900 1-732) (natural protein) |  |  | 7.59 | 8.23
